Measurements from the supplement of paper PMC10567573.

B1: FEM1A (parent)
chain: NIVEYLIQEQPGQEQVAGGEAQPG
B2: COX4I1 (parent)
chain: VAHVKHLSASQKALKEKEKASWSS

Variants of: B1
Experiment: protein stability index of a GFP-peptide fusion (GPS, HEK-293T) (PSI 1-6); higher = more stable
Conditions: c terminus: a fixed tail appended
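Also: lentivirally expressed fusions sorted by FACS into six bins by GFP to DsRed ratio, PSI derived from sequencing read proportions per bin multiplied by bin number.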

Protein stability index of substitutions, site by site:
I7: A 5.14
N1: T 2.92; S 3.7; R 3.19; G 4.34; H 3.76; M 2.16; E 3.85; V 2.76; F 2.54; A 2.91; D 3.66; W 2.71; C 2.79; Q 3.89; I 3.26; Y 2.52; L 1.85; K 3.36; P 5.17
L6: E 5.82; C 5.11; S 5.45; I 4.63; F 4.71; M 4.5; T 5.59; G 5.51; R 5.16; N 5.71; Q 5.35; W 4.44; A 5.36; P 5.7; D 5.26; H 5.61; Y 5.11; V 5.11; K 5.42
I2: A 5.21; M 4.15; F 4.24; Q 5.6; H 5.49; Y 4.59; T 5.57; K 5.27; L 4.29; R 5.59; E 5.63; D 5.12; G 5.39; W 2.59; P 5.54; S 5.54; V 5.13; N 5.41; C 5.17
V3: R 5.21; A 5.13; H 5.06; K 5.05; S 5.49; C 5.04; I 3.91; P 5.74; M 4.2; F 4.21; Y 4.33; E 5.36; N 5.01; T 4.81; Q 4.57; W 3.67; L 3.07; G 5.37; D 5.67
Y5: E 5.66; K 5.31; D 5.67; N 4.83; G 5.7; W 2.18; S 4.83; L 4.03; A 5.18; F 3.56; I 3.98; P 5.82; C 4.74; M 3.95; R 4.54; V 4.49; Q 5.08; H 4.93; T 5.44
E4: W 2.52; P 4.76; M 2; K 4.11; L 1.92; D 4.79; Q 3.95; N 4.22; F 2.4; I 1.86; T 4.6; C 3.11; H 3.56; G 4.16; S 3.64; A 3.48; R 3.48; Y 2.31; V 1.82

Variants of: B2
Experiment: as above
Conditions: c terminus: a fixed tail appended

Protein stability index of substitutions, site by site:
S21: N 3.75; D 4.18; G 3.6; I 3.68; K 3.47; W 3.24; V 3.96; E 4.42; Q 4.07; A 3.98; P 3.73; R 3.49; F 3.72; C 3.74; L 3.16; T 3.32; M 3.39; H 3.46; Y 3.32
E18: P 2.52; F 2.51; D 3.15; S 3.02; C 3.38; T 2.87; G 3.13; R 2.77; Q 4.05; A 2.92; W 2.69; V 2.59; K 2.92; H 3.64; L 2.69; M 2.13; N 2.98; Y 2.67; I 3.15
L14: N 3.98; C 3.12; V 3.38; K 3.65; F 2.88; E 3.54; H 3.61; A 3.2; T 2.89; Q 3.48; M 3.62; S 3.05; Y 3.09; P 3.41; G 3.1; I 3.46; W 3.2; D 3.92; R 3.7
S23: F 3.65; E 3.26; D 4.4; Y 3.41; T 2.91; L 3.1; K 3.74; V 2.61; H 3.68; P 4.06; Q 2.81; A 1.82; W 2.81; I 2.91; N 4; G 4.07; M 3.77; R 3.22; C 2.22
K19: A 3.86; L 2.48; T 3.17; R 3.71; V 3.03; W 3.46; M 2.7; H 2.89; N 3.4; Q 3.02; D 3.85; G 3.52; F 2.64; I 3.21; S 3.52; E 4.5; C 2.79; Y 2.28; P 3.63
E16: K 3.17; V 2.03; M 2.46; Y 2.56; W 2.31; R 2.8; S 2.64; N 3.05; T 2.93; C 2; Q 2.72; F 2.21; D 3.48; A 3.67; H 3.56; L 2.36; G 2.38; I 2.54; P 2.75
S24: I 3.56; F 3.33; C 3.31; R 3.38; K 4.25; W 2.95; D 2.98; Q 3.94; L 3.41; T 3.57; N 3.76; A 3.41; P 4.36; Y 3.13; M 3.17; E 2.81; V 3.15; H 3.45; G 3.62
A13: V 3.09; N 3.58; R 2.69; W 2.08; Y 3.06; S 3.2; T 3.27; P 3.8; Q 2.63; M 2.95
A20: P 3.36; F 3.13; E 1.71; S 3.16; D 3.27; H 3.23; L 2.86; Q 2.57; M 2.39; T 3.25; N 3.05; R 3.65; G 3.25; W 2; K 3.48; C 3.28; I 2.76; V 3.21; Y 2.29
W22: H 4.48; M 4.88; A 5.14; C 4.97; G 5.03; L 4.74; Q 4.79; F 4.6; D 4.85; N 5.21; T 4.96; K 4.78; V 4.98; I 4.38; E 5.33; R 4.58; S 5.08; Y 4.29; P 5.12
K15: C 3.21; D 3.96; N 3.77; G 3.18; S 4.04; F 3.21; M 3.94; R 3.33; I 3.82; T 3.48; L 3.29; Y 3; V 3.2; E 4.08; W 2.77; A 3.78; H 3.85; Q 3.5; P 2.99
K17: C 2.83; A 3.62; Q 3.53; V 2.95; G 3.86; N 3.81; S 3.23; H 3.26; I 2.83; L 2.71; P 3.32; E 3.9; Y 3.06; T 3.21; F 3.31; W 2.35; D 3.92; R 3.49; M 3.01
